To fix the notation:
T1: ILK ankyrin repeat domain W110A (human, UniProt Q13418 1-174, W110A)
T1 sequence (looked up): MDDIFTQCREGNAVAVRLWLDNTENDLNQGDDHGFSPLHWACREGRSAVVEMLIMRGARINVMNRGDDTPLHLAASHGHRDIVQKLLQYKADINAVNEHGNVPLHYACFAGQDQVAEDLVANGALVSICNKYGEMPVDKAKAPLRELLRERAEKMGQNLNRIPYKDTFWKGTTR

B1: ILK ankyrin repeat domain (ILK 1-174, from thrombin-cleaved GST-ILK 1-192) (domain or fragment, human, UniProt Q13418 1-174, looked up)
chain: T1 sequence (looked up) with A110W
B2: His-tagged PINCH2 LIM1 (PINCH2 6-68) (domain or fragment, human, UniProt Q7Z4I7-3 6-68, looked up)
chain: ANAVCQRCQARFSPAERIVNSNGELYHEHCFVCAQCFRPFPEGLFYEFEGRKYCEHDFQMLFA
B3: His-tagged PINCH2 LIM1 R12A (domain or fragment, human, UniProt Q7Z4I7-3 6-68, looked up)
chain: B2 chain with R7A
B4: PINCH2 LIM1 domain (PINCH2 6-68), His tag removed (domain or fragment, human, UniProt Q7Z4I7-3 6-68, looked up)
chain: B2 chain
B5: soluble PINCH1 LIM1 domain, His tag removed (domain or fragment)
chain: ASATCERCKGGFAPAEKIVNSNGELYHEQCFVCAQCFQQFPEGLFYEFEGRKYCEHDFQMLFA

For test [1], the target named is B4. As to the kind of experiment: crystal structure.
The target of test [2] is T1, ILK ankyrin repeat domain W110A. Nature of the test: pull-down.
Test [3] addresses B1. As to the kind of experiment: pull-down.
Test [4] addresses B1. Nature of the test: pull-down. The source holds these as a separate data set.
For test [5], the target named is B1. Nature of the test: pull-down. The source holds these as a separate data set.

Changes are numbered by the printed parent chain. Numbers in names are those of the source. Like-named read-outs stand apart in the source and are kept apart here.

What is called stoichiometry N is the number of molecules, sites or subunits per partner or assembly. For the molecule B1, the “stoichiometry N” value in test [1] stood at 1.
B2: the binding result in test [2] is “binds”.
Take B3: in test [3], the binding result was “binds”.
Usually IC50 stands for the concentration at which inhibition is half-maximal. A higher IC50 goes with weaker potency in that assay. As to B4, the IC50 in test [4] was determined as 2300 nM; in test [5], 4400 nM.
As for B5, in test [4], the IC50 stood at 2900 nM.

Values taken from publication PMC2841223 (Journal of structural biology, 2009).
